Reference: paper PMC11106768, “Synthetic Vesicles for Sustainable Energy Recycling and Delivery of Building Blocks for Lipid Biosynthesis” (ACS Synthetic Biology, 2024)

Assays:
E. coli GlpT = biological target: T1, E. coli GlpT (Escherichia coli, UniProt P08194); experiment: GlpT-dependent export from feeder vesicles, read by LC-MS of DOPA formed in utilizer vesicles; type: biochemical; conditions: antiport with external Pi, 50 mM KPi pH 7.0, 30 °C; indirect read-out
T1 construct: plasmid pBADmycHisB-glpT, expressed in E. coli MC1061, Ni-Sepharose and size exclusion in DDM, coreconstituted with L. sakei ArcD in vesicles; 54 kDa
T1 sequence (P08194 1-452): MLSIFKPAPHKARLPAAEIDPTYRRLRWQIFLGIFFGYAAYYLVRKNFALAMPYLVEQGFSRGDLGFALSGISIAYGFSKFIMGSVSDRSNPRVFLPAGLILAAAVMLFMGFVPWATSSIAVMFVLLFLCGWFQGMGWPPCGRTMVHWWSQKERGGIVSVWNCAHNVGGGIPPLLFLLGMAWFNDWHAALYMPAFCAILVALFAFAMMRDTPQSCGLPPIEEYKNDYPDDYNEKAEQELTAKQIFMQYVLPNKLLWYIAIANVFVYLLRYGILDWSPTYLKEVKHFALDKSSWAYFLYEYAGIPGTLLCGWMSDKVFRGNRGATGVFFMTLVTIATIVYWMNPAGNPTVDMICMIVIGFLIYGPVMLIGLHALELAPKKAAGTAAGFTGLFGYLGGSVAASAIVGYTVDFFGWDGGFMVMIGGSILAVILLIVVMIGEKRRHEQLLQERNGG

[1] = substrate: N=C(N)NCCC[C@H](N)C(=O)O; experiment: cells, lysate or membranes; conditions: pH 7.0; 20.0 °C
[2] = substrate: N=C(N)NCCC[C@H](N)C(=O)O; experiment: radiolabelled uptake into L-ornithine-loaded proteoliposomes, Michaelis-Menten fit; type: biochemical, Latilactobacillus sakei; conditions: 50 mM KPi pH 7.0, 2 mM DTT, 30 °C, internal L-ornithine 10 mM, external L-arginine 1-100 μM, labelled compound
Experimental: radiolabelled uptake into L-ornithine-loaded proteoliposomes, Michaelis-Menten fit on L. sakei ArcD | the affinity constant (KM) and turnover number (kcat) were determined for the L. sakei antiporter

[3] = substrate: N=C(N)NCCC[C@H](N)C(=O)O; experiment: cells, lysate or membranes; parameters: species or system L. lactis JP9000 ΔarcD1ΔarcD2; Radiolabeled L-arginine uptake in L-ornithine-loaded whole cells, filtration and scintillation counting; conditions: pH 7.0; 20.0 °C
Experimental: The arcD and arcE genes were cloned into nisin A-based expression vectors and flanked by a 10× His-tag at either the N- or the C-terminus. The constructs were transformed into L. lactis JP9000 ΔarcD1ΔarcD2[24] and the expression was optimized. […] All of these proteins were tested for L-arginine transport activity in vivo (Figure S4). […] By assuming a similar level of expression as the original ArcD2, ArcD from L. sakei would have a 10-fold higher turnover number and was therefore chosen for further in vitro characterization (Table S4). The genes encoding arcD/E were PCR-amplified from the source DNA templates with Phusion high-fidelity DNA polymerase (Thermo Fisher Scientific) and customized primers (Eurofins Genomics, Table S3). Next, fragment exchange (FX)[36] was exploited to clone the genes of interest into pNZ-N(His) or pNZ-C(His) vectors suitable for overexpression in L. lactis strains. According to the procedure, the PCR amplification products were first cloned into a sequencing vector (pINITIAL). To this end, both the insets and the backbone (1:5 molar ratio) were digested with 2.5 U of SapI (New England Biolabs) for 1 h at 37 °C, followed by a heat inactivation step at 60 °C for 20 min. Ligation was carried out by adding 5 U of T4 ligase (New England Biolabs) and incubating for 1 h at RT. […]

`O=P(O)(O)OC[C@H](O)CO` [glycerol 3-phosphate] was tested, and the “GlpT-dependent export from feeder vesicles, read by LC-MS of DOPA formed in util” value (E. coli GlpT) was “only when the feeder vesicles were equipped with the glycerol 3-phosphate exporter GlpT”.

B1: P. aeruginosa ArcD (Pseudomonas aeruginosa PAO1) (protein)
chain: MSQESSQKLRLGALTALVVGSMIGGGIFSLPQNMAASADVGAVLIGWAITAVGMLTLAFVFQTLANRKPELDGGVYAYAKAGFGDYMGFSSAWGYWISAWLGNVGYFVLLFSTLGYFFPIFGKGDTVAAIVCASVLLWALHFLVLRGIKEAAFINTVTTVAKVVPLFLFILICLFAFKLDIFTADIWGKSNPDLGSVMNQVRNMMLVTVWVFIGIEGASIFSSRAEKRSDVGKATVIGFITVLLLLVLVNVLSMGVMTQPELAKLQNPSMALVLEHVVGHWGAVLISVGLLISLLGALLSWVLLCAEIMFAAAKDHTMPEFLRRENANQVPANALWLTNICVQVFLVVVFFTSGDPDGMDPYTKMLLLATSMILIPYFWSAAYGLLLTLKGETYENDARERSKDLVIAGIAVAYAVWLLYAGGLKYLLLSALLYAPGAILFAKAKHEVGQPIFTGIEKLIFAAVVIGALVAAYGLYDGFLTL
Work on B1 yielded a Km [1] of 7.5 µM.

B2: L. sakei ArcD (Latilactobacillus sakei) (protein)
chain: MTEEKPAKKIGLLALIALVISSSIGSGVFGLTSDLASASAPGPVLIAWVIVGFGILMLALSLNNLLMKEPELEGIFSYAEKGFGPFAGFISGWGYWLSAWLGNVTFATILMSALGYFFPIFKSRQNLPSILVASVLSWSLTYFVNRGVEGAAAINTLVTICKLIPLFVFIIFGIVLFKGHLFTQAFWNNMSSSFVAGDVMSQIKNCMMVMMWVFVGIEGASMLSARAEKKSDAGKATILGLVSLLAIYILASVLPYGYLTQDQLASIKQPAMLYIFEQMVGTWGGYFIGVGLIISILGAWLSWTMLPAETMLLMAKQNLLPAYFGRVNKKKAPTFALVVTAGLIQVFLFTLLFTTKAYNFAYSLCTASIIVCYMLVAAYQIKYSWAHLQEKGNRQQLLIGVLALLFEIAGILMAGVSYLLLCFIAYIPGIYFYGRARKNNGHQHFLSKGEWLITTIIVIGAIIGIWLVVSGKIVI
notes: N-terminal 10x His-tag (plasmid pNZarcD-LS), expressed in L. lactis JP9000 delta-arcD1 delta-arcD2, purified in DDM, reconstituted in DOPE/DOPG/DOPC liposomes; 54 kDa
For B2, the Km [2] was 12.2 ± 1.5 µM, the kcat [2] was 5.8 ± 1.2 s⁻¹ and the Km [3] was 26.8 µM.
